This note sets out measurements from IntAct's records for PubMed 19264842.

The experiment has as its target T1, plcg1_human PLCG1 (UniProt P19174).
T1 sequence: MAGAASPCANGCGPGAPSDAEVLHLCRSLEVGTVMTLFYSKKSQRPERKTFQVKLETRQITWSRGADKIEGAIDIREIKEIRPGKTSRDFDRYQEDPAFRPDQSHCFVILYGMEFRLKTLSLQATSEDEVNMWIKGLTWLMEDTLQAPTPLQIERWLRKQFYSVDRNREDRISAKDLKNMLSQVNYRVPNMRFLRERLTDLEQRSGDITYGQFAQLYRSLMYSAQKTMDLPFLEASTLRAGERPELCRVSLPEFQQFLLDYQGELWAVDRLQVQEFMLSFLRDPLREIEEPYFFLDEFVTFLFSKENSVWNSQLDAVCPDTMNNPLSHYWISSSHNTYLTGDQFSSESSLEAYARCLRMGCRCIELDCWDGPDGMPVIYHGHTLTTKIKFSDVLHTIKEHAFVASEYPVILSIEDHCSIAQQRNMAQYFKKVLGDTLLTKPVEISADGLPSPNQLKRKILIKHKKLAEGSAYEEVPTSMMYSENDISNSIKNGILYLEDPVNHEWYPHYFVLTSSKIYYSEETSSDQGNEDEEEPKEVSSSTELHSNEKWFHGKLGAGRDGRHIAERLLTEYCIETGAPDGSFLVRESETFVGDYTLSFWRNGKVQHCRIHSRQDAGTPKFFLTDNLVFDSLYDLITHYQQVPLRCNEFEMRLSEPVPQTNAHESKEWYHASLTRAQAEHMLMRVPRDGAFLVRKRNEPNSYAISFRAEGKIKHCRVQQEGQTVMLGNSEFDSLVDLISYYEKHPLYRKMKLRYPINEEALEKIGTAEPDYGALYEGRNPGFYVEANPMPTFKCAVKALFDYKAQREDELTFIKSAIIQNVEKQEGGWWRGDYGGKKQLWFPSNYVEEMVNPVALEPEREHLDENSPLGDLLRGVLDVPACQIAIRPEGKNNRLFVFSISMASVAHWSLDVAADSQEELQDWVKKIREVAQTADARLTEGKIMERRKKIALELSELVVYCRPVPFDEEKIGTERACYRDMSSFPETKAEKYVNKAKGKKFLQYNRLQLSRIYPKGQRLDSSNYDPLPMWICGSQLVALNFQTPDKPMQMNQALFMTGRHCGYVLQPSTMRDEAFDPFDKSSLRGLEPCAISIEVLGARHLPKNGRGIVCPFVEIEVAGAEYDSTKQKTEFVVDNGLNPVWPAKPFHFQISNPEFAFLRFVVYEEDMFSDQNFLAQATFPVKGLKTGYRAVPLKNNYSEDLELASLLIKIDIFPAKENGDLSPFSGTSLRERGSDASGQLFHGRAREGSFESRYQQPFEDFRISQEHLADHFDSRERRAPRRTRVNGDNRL

As for “Ras-related C3 botulinum toxin substrate 1 (Homo sapiens) (from UniProt P63000) P106A”, the “effect of a mutation on the interaction” value is given as “disrupting interaction”.
The same measure for “Ras-related C3 botulinum toxin substrate 1 (Homo sapiens) (from UniProt P63000) P109A”: “disrupting interaction”.
